Test: Aldol cleavage reaction of fructose 1,6-bisphosphate, coupled with TIM/G3PDH, NADH 340 nm
Format: biochemical
Settings: F1,6P2 cleaved, 37° C., 30 minutes, pH 8.0
Protocol: The aldolase activity of the human 35 kd protein was determined as follows, according to the method described in a reference (Novel Biochemistry Experiment Lectures, Vol. 15, Metabolism Abnormality, p. 111, edit. Biochemical Society of Japan, publish. Tokyo Kagaku Dojin-sha, Sep. 22, 1992):
Conjugated with triose phosphate isomerase (TIM) and glycerol 3-phosphate dehydrogenase (G3PDH), the aldol cleavage reaction of fructose 1,6-bisphosphate (F1, 6P2) with the 35 kd protein was determined with NADH.
A reaction liquid having the composition mentioned below was prepared, and reacted at 37° C. for 30 minutes. The enzymatic reaction was monitored through the reduction in the 340 nm absorbance owing to the oxidation of NADH in the reaction liquid. The enzymatic reaction was indicated by the number of mols of F1, 6P2, per mg of the protein, cleaved within 1 minute (μmol/min/mg protein).
Reaction liquid 200 μl: 0.25 mM tris HCl buffer (pH 8.0), 0.15 M NaCl, 0.5 mM F1, 6P2 (from Sigma), human 35 kd protein, human liver TIM (500 μg/ml), rabbit skeletal muscle G3PDH (8 units/ml, from Sigma), 0.3 mM NADH (from Nakarai).
For comparison, a commercial product aldolase, Sigma's rabbit skeletal muscle aldolase (A-type aldolase), and an enzyme-free system were tested in the same manner.

B1: Human 35 kd protein: novel 35 kd protein, amino acid sequence SEQ ID NO: 2, expressed in E. coli and purified (protein, listed as Homo sapiens)
chain: MLGPQVWSSVRQGLSRSLSRNVGVWASGEGKKVDIAGIYPPVTTPFTATAEVDYGKLEENLHKLGTFPFRGFVVQGSNGEFPFLTSSERLEVVSRVRQAMPKNRLLLAGSGCESTQATVEMTVSMAQVGADAAMVVTPCYYRGRMSSAALIHHYTKVADLSPIPVVLYSVPANTGLDLPVDAVVTLSQHPNIVGMKDSGGDVTRIGLIVHKTRKQDFQVLAGSAGFLMASYALGAVGGVCALANVLGAQVCQLERLCCTGQWEDAQKLQHRLIEPNAAVTRRFGIPGLKKIMDWFGYYGGPCRAPLQELSPAEEEALRMDFTSNGWL
- Aldolase Activity (μmol/min/mg protein): 0.0034 μmol/min/mg protein
